Changes are numbered by the printed parent chain. Values joined by “and” are separate entries in the source; they are usually repeats but may differ in a detail not shown here. Equal entries are not always repeated. Blank lines part the entries; values can stand above or below the binder they belong to. No end group written: not given here.
Key:
[1] = biological target: T1, KIND2 lacking the flexible loop in F1 and the PH domain (ΔKIND2); assay: MST
T1 chain: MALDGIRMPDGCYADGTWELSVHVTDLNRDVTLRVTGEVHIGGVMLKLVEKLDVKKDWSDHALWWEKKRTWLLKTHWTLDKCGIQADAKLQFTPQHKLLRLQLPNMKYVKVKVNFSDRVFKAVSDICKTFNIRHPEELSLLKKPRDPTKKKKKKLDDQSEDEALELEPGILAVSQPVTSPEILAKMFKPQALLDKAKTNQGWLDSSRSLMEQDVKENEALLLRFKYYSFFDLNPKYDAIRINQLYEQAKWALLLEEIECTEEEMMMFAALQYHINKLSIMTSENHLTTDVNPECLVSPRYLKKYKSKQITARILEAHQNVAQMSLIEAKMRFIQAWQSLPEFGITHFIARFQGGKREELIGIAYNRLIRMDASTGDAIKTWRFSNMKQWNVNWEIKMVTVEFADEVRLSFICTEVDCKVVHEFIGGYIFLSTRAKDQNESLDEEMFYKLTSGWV

[2] = biological target: T2, F3 domain of TLN1 (TLN1-F3) (UniProt P26039 305-405); assay: MST
T2 chain: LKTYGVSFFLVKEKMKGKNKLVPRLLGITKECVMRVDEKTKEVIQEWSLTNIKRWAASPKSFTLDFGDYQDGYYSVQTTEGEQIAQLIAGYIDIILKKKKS

[3] = biological target: T3, F3 domain of TLN2 (TLN2-F3) (UniProt Q71LX4 311-408); assay: MST
T3 chain: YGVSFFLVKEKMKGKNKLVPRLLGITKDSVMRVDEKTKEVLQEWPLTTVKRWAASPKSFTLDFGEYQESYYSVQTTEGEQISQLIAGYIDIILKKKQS

THD1^K402E [4] = biological target: T4, THD1^K402E (UniProt P26039 1-405, K402E); assay: MST; ATTO 488-labelled β-CT peptide (50–200 nM) held constant, one unlabelled protein titrated; 20 mM Tris pH 7.5, 200 mM NaCl, 1 mM TCEP, 0.05% Tween-20; apparent affinities (near-saturation only); conditions: both partners purified
T4 construct: talin-1 (TLN1) head domain, residues 1-405, with K402E; In FC-RDA a copy labelled with ATTO 565 was the reporter; also called 565–THD1^K402E; source: E. coli (DE3) Rosetta 2, purified (IMAC, SEC); not shown: His10, N-terminal, cleaved; SUMO, N-terminal, cleaved
T4 sequence (P26039 1-405 K402E): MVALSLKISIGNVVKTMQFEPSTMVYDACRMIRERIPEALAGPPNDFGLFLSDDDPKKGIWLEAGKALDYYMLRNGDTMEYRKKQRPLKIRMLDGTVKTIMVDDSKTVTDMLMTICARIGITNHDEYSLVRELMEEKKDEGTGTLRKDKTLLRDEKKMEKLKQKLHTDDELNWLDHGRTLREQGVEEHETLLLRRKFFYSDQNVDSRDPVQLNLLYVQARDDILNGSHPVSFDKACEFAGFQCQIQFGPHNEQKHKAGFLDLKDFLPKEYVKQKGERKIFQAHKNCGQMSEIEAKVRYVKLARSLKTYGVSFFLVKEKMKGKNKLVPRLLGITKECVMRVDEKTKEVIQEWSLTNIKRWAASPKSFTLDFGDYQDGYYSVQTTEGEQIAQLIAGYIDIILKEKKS

KIND2^Y13A [5] = biological target: T5, KIND2^Y13A (UniProt Q8CIB5 1-680, Y13A); assay: as above; conditions: both partners purified
T5 construct: kindlin-2 (KIND2) with Y13A; In FC-RDA a copy labelled with Alexa 647 was the reporter; also called 647–KIND2^Y13A; source: E. coli Rosetta, purified (IMAC, SEC); not shown: His10, N-terminal, cleaved; SUMO, N-terminal, cleaved
T5 sequence (looked up): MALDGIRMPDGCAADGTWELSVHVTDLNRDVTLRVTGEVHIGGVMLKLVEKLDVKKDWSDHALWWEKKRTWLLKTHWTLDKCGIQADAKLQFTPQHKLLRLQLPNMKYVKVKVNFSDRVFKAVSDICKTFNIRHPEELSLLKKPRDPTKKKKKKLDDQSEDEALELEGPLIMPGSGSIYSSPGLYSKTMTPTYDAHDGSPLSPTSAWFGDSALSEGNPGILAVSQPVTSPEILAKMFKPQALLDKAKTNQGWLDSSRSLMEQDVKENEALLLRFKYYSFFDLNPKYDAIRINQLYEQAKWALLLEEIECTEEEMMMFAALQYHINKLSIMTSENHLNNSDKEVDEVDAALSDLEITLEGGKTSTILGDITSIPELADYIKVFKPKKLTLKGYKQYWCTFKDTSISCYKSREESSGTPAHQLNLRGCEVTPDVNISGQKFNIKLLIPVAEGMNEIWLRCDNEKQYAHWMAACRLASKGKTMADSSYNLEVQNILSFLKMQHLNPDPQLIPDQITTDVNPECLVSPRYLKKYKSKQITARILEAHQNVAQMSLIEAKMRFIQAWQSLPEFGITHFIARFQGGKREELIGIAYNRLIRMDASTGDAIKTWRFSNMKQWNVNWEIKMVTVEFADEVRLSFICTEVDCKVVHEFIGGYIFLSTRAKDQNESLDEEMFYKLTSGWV

[6] = biological target: T6, talin-2 head domain (THD2) (UniProt Q71LX4 1-408); assay: as above; conditions: both partners purified
T6 construct: talin-2 (TLN2) head domain, residues 1-408; source: E. coli (DE3) Rosetta 2, purified (IMAC, SEC); not shown: His10, N-terminal, cleaved; SUMO, N-terminal, cleaved

[7] = biological target: T7, talin-1 head domain (THD1) (UniProt P26039 1-405); assay: as above; conditions: both partners purified
T7 construct: talin-1 (TLN1) head domain (F0-F3), residues 1-405; In FC-RDA a copy labelled with ATTO 565 (565–THD1) was the reporter; also called 565–THD1; source: E. coli (DE3) Rosetta 2, purified (IMAC, SEC); not shown: His10, N-terminal, cleaved; SUMO, N-terminal, cleaved

kindlin-2 (KIND2) [8] = biological target: T8, kindlin-2 (KIND2) (UniProt Q8CIB5 1-680); assay: as above; conditions: both partners purified
T8 construct: kindlin-2 (KIND2) without the deletions of ΔKIND2; In FC-RDA a copy labelled with Alexa 647 (647–KIND2) was the reporter; also called 647–KIND2; source: E. coli Rosetta, purified (IMAC, SEC); not shown: His10, N-terminal, cleaved; SUMO, N-terminal, cleaved
T8 sequence (looked up): T5 sequence (looked up) with A13Y

THD1^K402E [9] = biological target: T4, THD1^K402E; assay: flow cytometry-based reporter-displacement assay (FC-RDA) on beads; biotinylated TM–CT in nanodiscs (10% PIP2 or PIP3, 90% DMPC) on streptavidin Dynabeads; reporters 100 nM 565–THD1 or 50 nM 647–KIND2; unlabelled THD1 or KIND2 titrated; 20 mM Tris pH 7.5, 200 mM NaCl, 10 min at room temperature; the lipids add to the binding; conditions: both partners purified
KIND2^Y13A [10] = biological target: T5, KIND2^Y13A; assay: as above; conditions: both partners purified
[11] = biological target: T7, talin-1 head domain (THD1); assay: as above; conditions: both partners purified
kindlin-2 (KIND2) [12] = biological target: T8, kindlin-2 (KIND2); assay: as above; conditions: both partners purified
[13] = biological target: T9, F3 domain of TLN1 (TLN1-F3) (UniProt P26039 305-405); assay: NMR titration; isotope-labelled β1-CT observed (1H-15N HSQC, 1H-13C methyl correlations); unlabelled TLN1-F3 or ΔKIND2 added alone at increasing stoichiometries; 20 mM Tris, 200 mM NaCl, 1 mM DTT, pH 7.5, 298 K; conditions: both partners purified
T9 construct: Used unlabelled, 15N-labelled or partially deuterated in NMR; also called T1-F3; source: E. coli (DE3) Rosetta 2, purified (IMAC, SEC); not shown: His10, N-terminal, cleaved; SUMO, N-terminal, cleaved

TLN1-F3^K402E = biological target: T10, TLN1-F3^K402E (UniProt P26039 305-405, K402E); assay: NMR titration; isotope-labelled β1-CT observed; TLN1-F3 and ΔKIND2 (wild type or K402E / Y13A) added together, ternary complex; 20 mM Tris, 200 mM NaCl, 1 mM DTT, pH 7.5, 298 K; conditions: both partners purified
T10 construct: source: E. coli (DE3) Rosetta 2, purified (IMAC, SEC); not shown: His10, N-terminal, cleaved; SUMO, N-terminal, cleaved

Kd [1]: 6.8 µM
Kd [2]: 106 µM
Kd [3]: 98 µM
Kd (THD1^K402E [4]): 34 µM
Kd (KIND2^Y13A [5]): 9 µM
Kd [6]: 39 µM
Kd [7]: 108 µM and 105 µM
Kd (kindlin-2 (KIND2) [8]): 9 µM
B1: ATTO 488-labelled β3-CT (488–β3-CT) (peptide, UniProt O54890 741-787, looked up)
peptide: {ATTO 488}-KLLITIHDRKEFAKFEEERARAKWDTANNPLYKEATSTFTNITYRGT
notes: integrin β3 cytoplasmic tail; source: synthetic peptide (MPIB Core Facility)

binding result (THD1^K402E [9]): binds
binding result (KIND2^Y13A [10]): binds
binding result [11]: binds
binding result (kindlin-2 (KIND2) [12]): binds
B2: β3 transmembrane and cytoplasmic tail polypeptide (β3-TM–CT) in nanodiscs (domain or fragment, UniProt O54890 715-787, looked up)
chain: GPDILVVLLSVMGAILLIGLATLLIWKLLITIHDRKEFAKFEEERARAKWDTANNPLYKEATSTFTNITYRGT
modifications: biotin (biotin-maleimide)
notes: integrin β3 transmembrane helix and cytoplasmic tail, residues 715-787; Embedded in nanodiscs of 10% PIP2 or PIP3 and 90% DMPC; held on streptavidin beads by the biotin; source: E. coli BL21 (DE3) Rosetta 2, inclusion bodies, purified (IMAC, cation exchange), put into MSP2N2 nanodiscs

binding result [13]: binds
binding result (TLN1-F3^K402E): binds
B3: integrin β1A cytoplasmic tail (β1-CT), recombinant (peptide, UniProt P05556-1 758-798, looked up)
chain: HDRREFAKFEKEKMNAKWDTGENPIYKSAVTTVVNPKYEGK
notes: integrin β1, splice isoform A, cytoplasmic tail, residues 758-798; DNA synthesised; 15N-, 13C,15N- or 2H,13C,15N-labelled when observed by NMR; also called β1A-CT; integrin-β1-CT; source: E. coli (DE3) Rosetta 2 in M9 medium, purified (IMAC, cation exchange); not shown: His10, N-terminal, cleaved; SUMO, N-terminal, cleaved

— article PMC10716038, “Talin and kindlin use integrin tail allostery and direct binding to activate integrins” (Nature Structural & Molecular Biology, 2023)
